The source of these data is PMC11059001 (2024).

For the experiment, the target named is complement C1q (human, UniProt P02745;P02746;P02747). The experiment in a line: MST.
Sequence of complement C1q (P02745 23-245, chain 1 of 3): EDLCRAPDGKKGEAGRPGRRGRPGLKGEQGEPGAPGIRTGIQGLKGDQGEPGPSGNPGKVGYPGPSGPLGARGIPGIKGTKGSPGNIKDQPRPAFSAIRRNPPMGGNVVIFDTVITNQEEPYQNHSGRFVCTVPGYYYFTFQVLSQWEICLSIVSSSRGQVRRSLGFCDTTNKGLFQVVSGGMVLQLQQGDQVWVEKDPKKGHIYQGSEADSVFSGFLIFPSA
Sequence of complement C1q (P02746 28-253, chain 2 of 3): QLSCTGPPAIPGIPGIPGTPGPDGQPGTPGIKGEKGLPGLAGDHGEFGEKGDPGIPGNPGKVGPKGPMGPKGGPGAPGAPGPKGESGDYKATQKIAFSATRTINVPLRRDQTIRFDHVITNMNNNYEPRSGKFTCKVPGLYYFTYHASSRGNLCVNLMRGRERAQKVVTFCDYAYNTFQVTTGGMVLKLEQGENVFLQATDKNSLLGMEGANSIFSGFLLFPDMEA
Sequence of complement C1q (P02747 29-245, chain 3 of 3): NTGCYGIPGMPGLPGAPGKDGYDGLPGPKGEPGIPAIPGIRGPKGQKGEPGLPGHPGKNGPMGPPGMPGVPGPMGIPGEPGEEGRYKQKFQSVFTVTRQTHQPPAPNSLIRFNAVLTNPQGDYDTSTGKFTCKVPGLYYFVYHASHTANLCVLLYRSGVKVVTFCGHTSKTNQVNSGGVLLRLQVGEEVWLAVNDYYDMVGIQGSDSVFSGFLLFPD

B1: TsCRT^Δ mutant Y132A/N158A (domain or fragment)
chain: EPTIYLKETFDDGDAWKERWVQSKHKDDYGEWQLSHGKLFADENDMGLKTMQDARFYSLSRKFDKVVDNKDKPLVIVYTVKHEQDIDCGGGYIKLMLENTDLEDFNSDTPARIMFGPDICGPEKRAVHSILWHDGKAYEKRKNAIAMADIFTHAYKLIIFPNNSYEIWVNNDKEAYGRLEDDWTMTEPGSGPVPELYRYKGLGAIGFELWQVKSGTIFDNILITDDPEYAKEFIDKQLEALRPIEKVESDK
modifications: fluorescent label RED-NHS (MO-L011 Monolith Protein Labelling Kit) in the MST assays; chain labelled not stated | fluorescent label RED-NHS (MO-L011 Monolith Protein Labelling Kit) in the MST assays; chain labelled not stated | fluorescent label RED-NHS (MO-L011 Monolith Protein Labelling Kit) in the MST assays; chain labelled not stated
A word on the Kd: it is a measure of binding affinity in units of concentration. On to B1, for which binding was put at a Kd of 8.89 µM. In other words, the single-digit micromolar range.
